Measured values taken from IntAct's records for PubMed 19114660.

B1: Occludin (Homo sapiens), Q16625-1 (parent)
chain: MSSRPLESPPPYRPDEFKPNHYAPSNDIYGGEMHVRPMLSQPAYSFYPEDEILHFYKWTSPPGVIRILSMLIIVMCIAIFACVASTLAWDRGYGTSLLGGSVGYPYGGSGFGSYGSGYGYGYGYGYGYGGYTDPRAAKGFMLAMAAFCFIAALVIFVTSVIRSEMSRTRRYYLSVIIVSAILGIMVFIATIVYIMGVNPTAQSSGSLYGSQIYALCNQFYTPAATGLYVDQYLYHYCVVDPQEAIAIVLGFMIIVAFALIIFFAVKTRRKMDRYDKSNILWDKEHIYDEQPPNVEEWVKNVSAGTQDVPSPPSDYVERVDSPMAYSSNGKVNDKRFYPESSYKSTPVPEVVQELPLTSPVDDFRQPRYSSGGNFETPSKRAPAKGRAGRSKRTEQDHYETDYTTGGESCDELEEDWIREYPPITSDQQRQLYKRNFDTGLQEYKSLQSELDEINKELSRLDKELDDYREESEEYMAAADEYNRLKQVKGSADYKSKKNHCKQLKSKLSHIKKMVGDYDRQKT

Variants of: B1
Conditions: with kpcl_human kpcl_human

| Variant | effect of a mutation on the interaction |
| --- | --- |
| T403A | decreasing interaction |
| T438A | decreasing interaction |
| T404A | decreasing interaction |
